Results from patent US7629437 (University of California, dated 2009).
*: point of attachment. CH2Cl = ClC*

Assays:
Test in all cases: cell-based or functional assay
[1] = biological target: Recombinant human βII tryptase (human, singly N-glycosylated (non- and single-glycosylation forms observed))
Human thrombin = Human thrombin (human, UniProt P00734 328-622)
Factor Xa = biological target: Factor Xa
[2] = biological target: urokinase plasminogen activator (UniProt P00749 21-431, limits assumed)
[3] = biological target: tissue-type plasminogen activator (UniProt P00750 36-562, limits assumed)
[4] = biological target: Recombinant human βI tryptase (human, UniProt Q15661 31-275, N-glycosylated (non-, single-, double- and hyper-glycosylation forms observed))
Human plasmin = Human plasmin (human, UniProt P00747 97-810, limits assumed)
Human plasmin, sequence (P00747 97-810 limits assumed): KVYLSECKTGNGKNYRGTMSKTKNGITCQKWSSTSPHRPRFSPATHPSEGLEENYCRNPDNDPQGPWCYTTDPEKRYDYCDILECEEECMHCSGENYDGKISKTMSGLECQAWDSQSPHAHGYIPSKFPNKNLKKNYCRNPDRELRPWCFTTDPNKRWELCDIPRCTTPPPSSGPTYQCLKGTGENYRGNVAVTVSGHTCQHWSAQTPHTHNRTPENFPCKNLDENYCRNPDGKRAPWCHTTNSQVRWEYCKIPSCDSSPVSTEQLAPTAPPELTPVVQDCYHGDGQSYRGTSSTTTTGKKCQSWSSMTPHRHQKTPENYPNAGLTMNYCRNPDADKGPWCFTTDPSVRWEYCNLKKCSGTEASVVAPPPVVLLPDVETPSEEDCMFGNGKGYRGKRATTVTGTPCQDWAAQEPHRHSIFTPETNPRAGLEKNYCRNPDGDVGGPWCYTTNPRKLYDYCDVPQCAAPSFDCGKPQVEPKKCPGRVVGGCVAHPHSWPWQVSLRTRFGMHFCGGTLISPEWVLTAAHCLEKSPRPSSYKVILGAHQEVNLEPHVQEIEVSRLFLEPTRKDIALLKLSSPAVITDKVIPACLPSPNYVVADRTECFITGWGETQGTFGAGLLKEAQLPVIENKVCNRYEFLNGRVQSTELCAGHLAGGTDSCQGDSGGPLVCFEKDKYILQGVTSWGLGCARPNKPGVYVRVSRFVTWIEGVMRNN

Recombinant human βI tryptase, sequence (Q15661 31-275): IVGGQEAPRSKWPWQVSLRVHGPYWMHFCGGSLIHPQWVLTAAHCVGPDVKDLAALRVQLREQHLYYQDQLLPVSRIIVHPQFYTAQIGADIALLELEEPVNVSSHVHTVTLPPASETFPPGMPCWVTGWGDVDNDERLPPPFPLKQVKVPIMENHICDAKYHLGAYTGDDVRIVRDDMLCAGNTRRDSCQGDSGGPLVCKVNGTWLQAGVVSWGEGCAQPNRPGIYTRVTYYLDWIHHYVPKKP
tissue-type plasminogen activator, sequence (P00750 36-562 limits assumed): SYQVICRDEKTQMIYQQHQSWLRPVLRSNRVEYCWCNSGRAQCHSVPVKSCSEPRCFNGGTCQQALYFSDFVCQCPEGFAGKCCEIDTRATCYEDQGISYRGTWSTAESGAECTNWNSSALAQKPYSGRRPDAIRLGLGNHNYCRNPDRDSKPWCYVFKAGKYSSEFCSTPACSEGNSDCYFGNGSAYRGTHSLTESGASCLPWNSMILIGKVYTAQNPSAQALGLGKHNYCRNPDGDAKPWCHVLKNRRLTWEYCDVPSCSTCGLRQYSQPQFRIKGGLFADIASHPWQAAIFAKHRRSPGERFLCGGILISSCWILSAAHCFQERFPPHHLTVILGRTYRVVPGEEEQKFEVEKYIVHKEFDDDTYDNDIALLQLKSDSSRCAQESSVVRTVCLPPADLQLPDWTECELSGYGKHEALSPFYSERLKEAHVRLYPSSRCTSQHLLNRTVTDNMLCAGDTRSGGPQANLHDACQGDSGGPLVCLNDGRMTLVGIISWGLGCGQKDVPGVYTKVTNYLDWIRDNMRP
Recombinant human βII tryptase (human, singly N-glycosylated (non- and single-glycosylation forms observed)), sequence (chain, as listed by the source): as the sequence (Q15661 31-275) above, with N102K counted along it

Percent Inhibition, 10 µM Ac-PRNK-cmk [1]: 95%
Percent Inhibition, 100 µM Ac-PRNK-cmk [1]: 100%
Percent Inhibition, 10 µM Ac-PRNK-cmk (Human thrombin): 0%
Percent Inhibition, 100 µM Ac-PRNK-cmk (Human thrombin): 0%
Percent Inhibition, 10 µM Ac-PRNK-cmk (Factor Xa): 0%
Percent Inhibition, 100 µM Ac-PRNK-cmk (Factor Xa): 0%
Percent Inhibition, 10 µM Ac-PRNK-cmk [2]: 0%
Percent Inhibition, 100 µM Ac-PRNK-cmk [2]: 34%
Percent Inhibition, 10 µM Ac-PRNK-cmk [3]: 0%
Percent Inhibition, 100 µM Ac-PRNK-cmk [3]: 0%
Percent Inhibition, 10 µM Ac-PRNK-cmk [4]: 95%
Percent Inhibition, 100 µM Ac-PRNK-cmk [4]: 100%
Percent Inhibition, 10 µM Ac-PRNK-cmk (Human plasmin): 0%
Percent Inhibition, 100 µM Ac-PRNK-cmk (Human plasmin): 63%
B1: Ac-PRNK-cmk (peptide)
peptide: Ac-PRNK-CH2Cl
SMILES: CC(=O)N1CCC[C@H]1C(=O)N[C@@H](CCCNC(=N)N)C(=O)N[C@@H](CC(N)=O)C(=O)N[C@@H](CCCCN)C(=O)CCl
